Legend:
DU-145 cells [1] = test: Modified Boyden chamber cell migration assay; format: cell-based, human
Protocol: (§1) FIGS. 2(A-E) illustrate EphA activation inhibited DU-145 cell migration. (A) Expression of c-Met is elevated in cell lines derived from more malignant prostate cancer. Total cellular proteins were immunoblotted with anti-human c-Met. An anti-tubulin blot was used as a control for protein loading. (B) In a modified Boyden chamber assay, DU-145 cells were placed in the upper chamber and allowed to migrate to the lower chamber containing indicated reagents. After 8 hours, cells were stained with crystal violet and cells remaining in the upper chamber were removed. Top panel: Cells migrated to the undersides of membrane were counted; six high power fields were counted. Results represent means±S.D. Representative fields were shown in the lower panel. (C) Ephrin-A1-Fc inhibits DU-145 cell migration when HGF/SF was uniformly presented in both sides of membranes. The experiment was carried out as described in A. (D) Inhibition of cell scattering by immobilized ephrin-A1 in a SOIL assay (Method). Ephrin-A1-Fc or control Fc was immobilized on 6-well culture dishes. Freshly confluent DU-145 cells on cover slips were transferred to the coated surfaces. Cells were stimulated with HGF/SF to induce migration off the cover slips to immobilized Fc or ephrin-A1-Fc. After 48 hours, cells were fixed and stained with crystal violet. The cells that had migrated to the coated surface were photographed after removing cover slips. (E) DU-145 cells were grown to confluency and a wound was generated by scratching monolayer with a 200 μl pipette tip. The wound healing was recorded prior to and 12 hours after the addition of Fc, ephrin-A1-Fc (1 μg/ml) and/or HGF/SF (20 ng/ml). Representative results from 3 independent experiments are shown.
Modified Boyden chambers of 8 μm pore size (Costar) were used for migration assay. Both sides of the membranes were coated with 10 μg/ml collagen at 4° C. overnight. […] Cells migrated to the underside of the membrane were counted under 200× magnification.

DU-145 cells [2] = test: Scattering onto immobilized ligand (SOIL) assay; format: cell-based, human; settings: 48 hours
Protocol: as §1, with “After 48 hours, cells were fixed and stained with crystal violet. The cells that had migrated to the coated surface were photographed after removing cover slips. (E) DU-145 cells were grown to confluency and a wound was generated by scratching monolayer with a 200 μl pipette tip.” left out, “Representative results from 3 independent experiments are shown.” left out

DU-145 cells [3] = test: MatriGel invasion assay; format: cell-based, human; settings: 24 hours
Protocol: FIG. 3 illustrates EphA activation inhibited DU-145 cell invasion. DU-145 cells were placed in the upper chamber of MatriGel-coated Transwell. Fc, ephrin-A1-Fc, HGF/SF/Fc or HGF/SF/ephrin-A1-Fc, were added in the lower chamber. After 24 hours, cells invading through MatriGel and migrated to the undersides of membrane were counted. Representative results (mean±S.D.) from three independent experiments are shown.
For invasion assay, the upper chamber was coated with 50 μg of growth factor-reduced MatriGel (BD) according to manufacturer's instructions. The same procedure as in migration assay was followed, except that the cells were allowed 24 hours to migrate to the underside of the membranes.

primary keratinocytes = test: Clonal growth of primary keratinocytes; format: cell-based, mouse
Protocol: FIGS. 43(A-C) illustrate EphA2 kinase is required for ephrin-A1-induced inhibition of ERK1/2 MAP kinase and growth suppression in primary keratinocytes. A) EphA kinase activation by ephrin-A1 in EphA2^+/+ and EphA2^+/− but not EphA2^−/− keratinocytes. Keratinocytes were isolated from newborn (P1) mice and cultured on matrigel-coated culture plates. They were stimulated with 1.0 μg/ml of ephrin-A1-Fc for 10 min. The unstimulated cells were used as control. EphA receptors including EphA2 were precipitated from the cell lysates using ephrin-A1-Fc, and were subjected to immunoblot analysis with rabbit polyclonal anti-phospho-EphA/B antibody. Membrane was stripped and blotted again for total EphA2. B) Ephrin-A1 stimulation leads to inactivation of ERK1/2 MAPK in EphA2^+/+ and EphA2^+/− but not EphA2^−/− keratinocytes. Total cell lysates were analyzed by immunoblot with the indicated antibodies. The band densities from p-ERK blot were normalized to the corresponding total ERK1 blot. The ratios of p-ERK between ephrin-A1-treated and untreated were shown in the lower panel. C). Ephrin-A1 stimulation inhibits clonal growth of EphA2^+/+ and EphA2^+/− but not EphA2^−/− keratinocytes. Primary keratinocytes were plated on 6-well plates coated with matrigel at 5,000 cells/well, and allowed to grow for 12 days in the presence of Fc (0.5 μg/ml) or ephrin-A1-Fc (1.0 μg/ml).

Akt and ERK = Akt and ERK activities in DU145 cells expressing WT or dominant negative EphA2; format: cell-based, human; settings: DU145 with dominant negative EphA2
From the text: (§2) FIGS. 46(A-D) illustrate A) EphA2 is overexpressed in osseous but not lymph node metastases of human prostate cancer specimens obtained from rapid autopsy. […] DU145 cells were infected with a retroviral vector expressing wild type (WT) or a dominant negative mutant EphA2 where the entire cytoplasmic tail was replaced with GFP. An antibody against the ectodomain of EphA2 was used to determine the expression of endogenous (vector control), WT- and DN-EphA2. D) Upregulation of EphA2 by Ras but not Myc oncogene in NRP152 normal rat prostate epithelial cells.
as §2, with “We observed that” for “FIGS. 46(A-D) illustrate A)”, “autopsy (FIG. 46A).” for “autopsy.”, “DN-EphA2 (FIG. 46C). We further observed upregulation” for “DN-EphA2. D) Upregulation”, “cells (FIG. 46D).” for “cells.”

B1: ephrin-A1-Fc: ephrin-A1 dimerized by fusion to the heavy chain of human IgG1 (protein)
chain: DRHTVFWNSSNPKFRNEDYTIHVQLNDYVDIICPHYEDHSVADAAMEQYILYLVEHEEYQLCQPQSKDQVRWQCNRPSAKHGPEKLSEKFQRFTPFTLGKEFKEGHSYYYISKPIHQHEDRCLRLKVTVSGKITHSPQAHDNPQEKRLAADDPEVRVLHSIGHS
modifications: left off: a dimerising Fc or GST
notes: ephrin-A1 dimerized by fusion to the heavy chain of human IgG1
cell migration with HGF/SF on both sides (DU-145 cells [1]; HGF/SF both sides, ligand in lower chamber only): significantly reduced the number of cells migrated
HGF/SF-stimulated cell migration (DU-145 cells [1]; HGF/SF in lower chamber): potently inhibited
basal cell migration (DU-145 cells [1]; lower chamber, 1 μg/ml, 8 hours, vs Fc): reduced the basal level of cell migration
HGF/SF-induced cell migration off cover slips (DU-145 cells [2]): significantly reduced
basal cell migration off cover slips (DU-145 cells [2]): reduced basal levels of cell migration off cover slips
HGF/SF-induced cell invasion (DU-145 cells [3]): significantly reduced
basal cell invasion (DU-145 cells [3]): marginally reduced the basal cell invasion
clonal growth (primary keratinocytes; EphA2 knockout keratinocytes): resistant to ephrin-A1-induced growth inhibition
clonal growth (primary keratinocytes; wild type and heterozygous, 1.0 μg/ml, 12 days): suppressed the growth of wild type and heterozygous keratinocytes
Akt and ERK activities (Akt and ERK): abolished the inhibitory effects

— US10434074B2, “Peptide and small molecule agonists of EPHA and uses thereof” (CASE WESTERN RESERVE UNIVERSITY, priority 2004, dated 2019)
